Assays:
[1] = tested on: T1, full size HCC-1 (HCC-1, residues 1-74)
T1 sequence: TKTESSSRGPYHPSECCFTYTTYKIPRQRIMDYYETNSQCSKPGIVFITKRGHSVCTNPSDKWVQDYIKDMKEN

[2] = tested on: T2, PHC-1 (HCC-1[9-74])
T2 sequence: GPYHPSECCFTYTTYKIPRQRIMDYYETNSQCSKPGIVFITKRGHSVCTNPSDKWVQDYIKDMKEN

Row | Substance | tryptic digestion, 1 h, enzyme/substrate-ratio (w/w) 1/100 [1] | proteolytic cleavage; product analysed by RP-HPLC, CCR5 aequorin assay, mass spectrometry and Edman degradation [1] | proteolytic degradation, activity after 90 min at 37° C with 10 or 100 IU urokinase [2]
1 | trypsin | One cleavage product, the newly identified biologically active peptide PHC-1, comprising residues 9-74 of the HCC-1 precursor sequence, with the molecular mass of 7795 Da was obtained |  | 
2 | urokinase |  | identifying PHC-1 and full size HCC-1 as the major compounds in these fractions | No change of activity was observed after an incubation of 90 min at 37 °C

Reference: patent publication US20090082262
